Results as given in US10822379 (UNIVERSITY OF PITTSBURGH OF THE COMMONWEALTH SYSTEM OF …, dated 2020).

Target: RBD of the S protein of SARS-CoV-2 (SARS-CoV-2, UniProt P0DTC2 330-532)
Assay: ELISA on SARS-CoV-2 RBD

| Binder | EC50 |
| --- | --- |
| Clone #8 (ab8) (other, also called #8 (VH domain)) VH: EVQLVESGGGLVQPGGSLRLSCAASGFTFDDYAMSWVRQAPGKGLEWIGRMYNNGRTSYNPSLKSLVTISRDNSKNTLYLQMNSLRAEDTATYYCARDNLGYRPSENLYGMDVWGQGTTVTVSS | 25 nM |
| Clone #1 (ab1) (Fab, V domains shown, also called #1 (Fab)) VH: EVQLVESGGGLVQPGGSLRLSCAASGFTVSSNYMSWVRQAPGKGLEWVSVIYSGGSTYYADSVKGRFTISRHNSKNTLYLQMNSLRAEDTAVYYCARGYGDYYFDYWGQGTLVTVSS VL: DVVMTQSPATLSLSPGEKATLSCRASQSVSSYLAWYQQKPGQPPKLLIYWASTRESGVPDRFSGSGSGTDFTLTISSLQAEDVAVYYCQQYGSSPLTFGGGTKVEIKR | 20 nM |
| Clone #6 (ab6) (other, also called #6 (VH domain)) VH: EVQLVESGGGVVQPGRSLRLSCAASGFTFSSYAMHWVRQAPGKGLEWIGNIYHDGSTFYNPSLKSLVTISRDDSTNTLYLQMNSLRAEDTAIYYCARVWLYGSGYMDVWGKGTLVTVSS | 6 nM |
| Clone #7 (ab7) (other, also called #7 (VH domain)) VH: EVQLVESGGGLVQPGGSLRLSCAASAFDFYDYEMSWVRQAPGKALEWIGEIHHSGSTYYNPSLKGRFTISRDNSKNTLYLQMNSLRAEDTAVYYCAKDVSYHADVWGQGTTVTVSS | 4 nM |
| Clone #2 (ab2) (Fab, V domains shown, also called #2 (Fab)) VH: QVQLQQSGPGLVKPSQTLSLTCAISGDSVSSNSAAWNWIRQSPSRGLEWLGRTYYRSKWYNDYAVSVKSRITINPDTSKNQFSLQLNSVTPEDTAVYYCAREQQQLVPHYYYYGMDVWGQGTTVTVSS VL: DVVMTQSPSVSGSPGQSVTISCTGTTSDVGGYNYVSWYQQRPGKAPKLMIYEVSKRPSGVPDRFSGSKSGNTASLTVSGLQAEDEADYYCSSYTSSSTLFGTGTKLTVLG | 2 nM |
| Clone #9 (ab9) (other, also called #9 (VH domain)) VH: EVQLVESGGGLVQPGGSLRLSCKGSGFTLSDYYIGWVRQAPGKGLEWIGSMYHSGRTYINPSLKSRVTISRDNSKNTLYLQMNSLRAEDTAVYYCARGGITGTTPIDYWGQGTLVTVSS | 60 nM |
| Clone #4 (ab4) (scFv, also called #4 (scFv)) scFv: EVQLVQSGGGLVQPGGSLRLSCAASGFTFSNYAMTWVRQAPGKGLEWVSTIAGSGDNTYYADSVKGRFTISRDNDKNTLYLQMNSLRADDTAVYYCARDRYYTMDVWGQGTLVTVSSGGGGSGGSGSSGGGSQSVVTQPPSASGSPGQSVTISCTGTSSDVGGYNHVSWYQQHPGKAPKLLIYEVSERPSGVPDRFSGSKSDNKASLTIIGLQTEDEADYYCQSYDSSLSGSLFGTGTKLTVLR | 10 nM |
| Clone #5 (ab5) (other, also called #5 (VH domain)) VH: KVQLQQWGAGLLKPSETLSLTCAVYGGSFSGYYWSWIRQPPGKGLEWIGEINHSGSTNYNPSLKSRVTISVDTSKNQFSLKLSSVTAADTAVYYCVRLPMIKKSFDIWGPGTLVTVSS | 20 nM |
